Reference: patent US20260199463A1 (CENTURY THERAPEUTICS, published 2026)
Where a chain is given by its changes, count along the chain named.

B1: NEC_S_31 (VHH)
VHH: EVQLLESGGGLVQPGGSLRLSCAASGFTYSSYAMGWYRQAPGKERELVSSISGSGGSTRYADSVKGRFTISRDNSKNTLYLQMNSLKPEDTAVYYCAVAIGVGDYWGQGTQVTVSS
notes: Periplasmic extract (PPE) of a panning clone
B2: NEC_S_56 (VHH)
VHH: B1 VHH with F27L, Y29L, Y37F, A99D, G101R, V102L, G103T
notes: as for B1
B3: NEC_S_55 (VHH)
VHH: EVQLLESGGGLVQPGGSLRLSCAASGFTLSSYAMGWYRQAPGKERELVSSISGSGGSTRYADSVKGRFTISRDNSKNTLYLQMNSLKPEDTAVYYCAAYIGGDYLGQGTQVTVSS
notes: as for B1
B4: NEC_S_16 (VHH)
VHH: EVQLLESGGGLVQPGGSLRLSCAASGFTFSDYYMGWYRQAPGKEREFVSAISSTGGSPYYADSVKGRFTISRDNSKNTLYLQMNSLKPEDTAVYYCAVEVPYDYWGQGTQVTVSS
notes: as for B1
B5: NEC_S_64 (VHH)
VHH: B4 VHH with T28A, F29Y, D31S, T54S, S57G, P58T, V100L, P101T, D103N
notes: as for B1
B6: NEC_M_5 (VHH)
VHH: EVQLLESGGGLVQPGGSLRLSCAASGLSFSSYSMGWYRQAPGKEREFVSAISGSSGSTNYADSVKGRFTISRDNSKNTLYLQMNSLKPEDTAVYYCAAEHRVTTSGVFYDYWGQGTQVTVSS
notes: as for B1
B7: NEC_M_8 (VHH)
VHH: EVQLLESGGGLVQPGGSLRLSCAASGFTFSSYAMGWYRQAPGKEREFVSSISGSGGLTRYADSVKGRFTISRDNSKNTLYLQMNSLKPEDTAVYYCAVTTGYQGGVYDYWGQGTQVTVSS
notes: as for B1
B8: NEC_M_17 (VHH)
VHH: EVQLLESGGGLVQPGGSLRLSCAASGFTYSGYAMGWYRQAPGKERELVSSISGSGTLTSYADSVKGRFTISRDNSKNTLYLQMNSLKPEDTAVYYCDVDIPVGDATTVGDYWGQGTQVTVSS
notes: as for B1
B9: NEC_M_21 (VHH)
VHH: EVQLLESGGGLVQPGGSLRLSCAASGLTFSSNAMGWYRQAPGKERELVSSISGSGGSTNYADSVKGRFTISRDNSKNTLYLQMNSLKPEDTAVYYCAAEIATYYDFADYWGQGTQVTVSS
notes: as for B1
B10: NEC_M_29 (VHH)
VHH: EVQLLESGGGLVQPGGSLRLSCAASGFTYTSYVMGWYRQAPGKERELVSAIYGSAGSGYYADSVKGRFTISRDNSKNTLYLQMNSLKPEDTAVYYCARVTTTTHLWSAEYWGQGTQVTVSS
notes: as for B1
B11: NEC_M_44 (VHH)
VHH: EVQLLESGGGLVQPGGSLRLSCAASGRTLSSYAMGWYRQAPGKERELVSSISGSGGSTRYADSVKGRFTISRDNSKNTLYLQMNSLKPEDTAVYYCAVYILELAPGAEYWGQGTQVTVSS
notes: as for B1
B12: NEC_M_46 (VHH)
VHH: EVQLLESGGGLVQPGGSLRLSCAASGYTFSDYAMGWYRQAPGKERELVSSISGSGGSTRYADSVKGRFTISRDNSKNTLYLQMNSLKPEDTAVYYCAAVIRQPSTGFYEYWGQGTQVTVSS
notes: as for B1
B13: NEC_M_66 (VHH)
VHH: EVQLLESGGGLVQPGGSLRLSCAASGFAYSSYSIGWYRQAPGKERELVSAISGSGGSSRYADSVKGRFTISRDNSKNTLYLQMNSLKPEDTAVYYCAAIAYVYTSTARNYWGQGTQVTVSS
notes: as for B1
B14: NEC_M_82 (VHH)
VHH: EVQLLESGGGLVQPGGSLRLSCAASGFTYSDYAMGWYRQAPGKERELVSAISSYGGVTNYADSVKGRFTISRDNSKNTLYLQMNSLKPEDTAVYYCAAYGALSIRGYDYWGQGTQVTVSS
notes: as for B1
B15: NEC_M_84 (VHH)
VHH: EVQLLESGGGLVQPGGSLRLSCAASGFAFSIDAMGWYRQAPGKEREGVSSISGSGGLTRYADSVKGRFTISRDNSKNTLYLQMNSLKPEDTAVYYCDTAVLTGYSEAFDYWGQGTQVTVSS
notes: as for B1
B16: NEC_S_2 (VHH)
VHH: EVQLLESGGGLVQPGGSLRLSCAASGSTFSSNAMGWYRQAPGKERELVSSISGSGGSTRYADSVKGRFTISRDNSKNTLYLQMNSLKPEDTAVYYCASYVLYLREYWGQGTQVTVSS
notes: as for B1
B17: NEC_S_5 (VHH)
VHH: EVQLLESGGGLVQPGGSLRLSCAASGLTFRYNAMGWYRQAPGKEREFVSAISGSGGGTYYADSVKGRFTISRDNSKNTLYLQMNSLKPEDTAVYYCAAEGLYDYWGQGTQVTVSS
notes: as for B1
B18: NEC_S_11 (VHH)
VHH: EVQLLESGGGLVQPGGSLRLSCAASGLTSSGYAMGWYRQAPGKERELVSSISSSGGLTHYADSVKGRFTISRDNSKNTLYLQMNSLKPEDTAVYYCDADIAYTGADYWGQGTQVTVSS
notes: as for B1
B19: MARS SP_NEC_M_5_P3106_CD8 Hinge_CD28 tm_41BB_CD3Z (other)
chain: EVQLLESGGGLVQPGGSLRLSCAASGLSFSSYSMGWYRQAPGKEREFVSAISGSSGSTNYADSVKGRFTISRDNSKNTLYLQMNSLKPEDTAVYYCAAEHRVTTSGVFYDYWGQGTQVTVSSTTTPAPRPPTPAPTIASQPLSLRPEACRPAAGGAVHTRGLDFACDFWVLVVVGGVLACYSLLVTVAFIIFWVKRGRKKLLYIFKQPFMRPVQTTQEEDGCSCRFPEEEEGGCELRVKFSRSADAPAYQQGQNQLYNELNLGRREEYDVLDKRRGRDPEMGGKPRRKNPQEGLYNELQKDKMAEAYSEIGMKGERRRGKGHDGLYQGLSTATKDTYDALHMQALPPR
notes: Chimeric antigen receptor on transduced Nurkat cells or primary T cells
B20: MARS SP_NEC_M_8_P3107_CD8 Hinge_CD28 tm_41BB_CD3Z (other)
chain: EVQLLESGGGLVQPGGSLRLSCAASGFTFSSYAMGWYRQAPGKEREFVSSISGSGGLTRYADSVKGRFTISRDNSKNTLYLQMNSLKPEDTAVYYCAVTTGYQGGVYDYWGQGTQVTVSSTTTPAPRPPTPAPTIASQPLSLRPEACRPAAGGAVHTRGLDFACDFWVLVVVGGVLACYSLLVTVAFIIFWVKRGRKKLLYIFKQPFMRPVQTTQEEDGCSCRFPEEEEGGCELRVKFSRSADAPAYQQGQNQLYNELNLGRREEYDVLDKRRGRDPEMGGKPRRKNPQEGLYNELQKDKMAEAYSEIGMKGERRRGKGHDGLYQGLSTATKDTYDALHMQALPPR
notes: as for B19
B21: MARS SP_NEC_M_44_P3109_CD8 Hinge_CD28 tm_41BB_CD3Z (other)
chain: EVQLLESGGGLVQPGGSLRLSCAASGRTLSSYAMGWYRQAPGKERELVSSISGSGGSTRYADSVKGRFTISRDNSKNTLYLQMNSLKPEDTAVYYCAVYILELAPGAEYWGQGTQVTVSSTTTPAPRPPTPAPTIASQPLSLRPEACRPAAGGAVHTRGLDFACDFWVLVVVGGVLACYSLLVTVAFIIFWVKRGRKKLLYIFKQPFMRPVQTTQEEDGCSCRFPEEEEGGCELRVKFSRSADAPAYQQGQNQLYNELNLGRREEYDVLDKRRGRDPEMGGKPRRKNPQEGLYNELQKDKMAEAYSEIGMKGERRRGKGHDGLYQGLSTATKDTYDALHMQALPPR
notes: as for B19
B22: MARS SP_NEC_M_46_P3110_CD8 Hinge_CD28 tm_41BB_CD3Z (other)
chain: EVQLLESGGGLVQPGGSLRLSCAASGYTFSDYAMGWYRQAPGKERELVSSISGSGGSTRYADSVKGRFTISRDNSKNTLYLQMNSLKPEDTAVYYCAAVIRQPSTGFYEYWGQGTQVTVSSTTTPAPRPPTPAPTIASQPLSLRPEACRPAAGGAVHTRGLDFACDFWVLVVVGGVLACYSLLVTVAFIIFWVKRGRKKLLYIFKQPFMRPVQTTQEEDGCSCRFPEEEEGGCELRVKFSRSADAPAYQQGQNQLYNELNLGRREEYDVLDKRRGRDPEMGGKPRRKNPQEGLYNELQKDKMAEAYSEIGMKGERRRGKGHDGLYQGLSTATKDTYDALHMQALPPR
notes: as for B19
B23: MARS SP_NEC_S_31_P3113_CD8 Hinge_CD28 tm_41BB_CD3Z (other)
chain: EVQLLESGGGLVQPGGSLRLSCAASGFTYSSYAMGWYRQAPGKERELVSSISGSGGSTRYADSVKGRFTISRDNSKNTLYLQMNSLKPEDTAVYYCAVAIGVGDYWGQGTQVTVSSTTTPAPRPPTPAPTIASQPLSLRPEACRPAAGGAVHTRGLDFACDFWVLVVVGGVLACYSLLVTVAFIIFWVKRGRKKLLYIFKQPFMRPVQTTQEEDGCSCRFPEEEEGGCELRVKFSRSADAPAYQQGQNQLYNELNLGRREEYDVLDKRRGRDPEMGGKPRRKNPQEGLYNELQKDKMAEAYSEIGMKGERRRGKGHDGLYQGLSTATKDTYDALHMQALPPR
notes: as for B19

molecular target: T1, Nectin4-HIS protein (AcroBiosystems #NE4-H52H3) (UniProt Q96NY8 32-349); assay: ELISA, periplasmic extract on plate-bound Nectin4 (1 ug/mL), anti-Flag:HRP detection
T1 construct: Bought protein; also called Nectin4 protein; recombinant Nectin4-HIS protein; not shown: His tag
T1 sequence (looked up): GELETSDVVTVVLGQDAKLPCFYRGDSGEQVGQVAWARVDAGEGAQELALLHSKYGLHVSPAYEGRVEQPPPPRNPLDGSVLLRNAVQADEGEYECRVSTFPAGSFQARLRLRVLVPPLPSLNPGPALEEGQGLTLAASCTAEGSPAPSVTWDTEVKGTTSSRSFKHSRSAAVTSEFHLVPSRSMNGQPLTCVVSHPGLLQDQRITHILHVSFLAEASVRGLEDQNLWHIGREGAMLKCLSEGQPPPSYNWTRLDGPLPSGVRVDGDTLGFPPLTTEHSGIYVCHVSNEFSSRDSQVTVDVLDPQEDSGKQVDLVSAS
Description: ELISA: 8 Maxisorp plates were coated with 100 uL/well Nectin4 at 1 ug/mL overnight at 4° C. Plates were emptied, and 200 uL/well SuperBlock was added to all plates, and incubated for 1 hour at RT. The plate was washed 1× with TBST on the Aquamax plate washer. 60 μL of anti-Flag:HRP (1:10,000 in PBS-T with 1:10 Superblock) was added per well to a V-bottom plate for each library screening plate. 60 uL/well PPE was added per well to the V-bottom plates and incubated for 1 hour at RT. 50 μL of the PPE/Anti-Flag mix was transferred to each ELISA plate and incubated for 1 hour at RT. The plate was washed 3× with TBST on the Aquamax plate washer. 50 uL/well TMB Ultra solution was added and incubated at RT for 30 minutes, until the wells appeared blue. 50 uL/well stop solution was added and absorbance at 450 nm was read on the Spectramax i3× plate reader. 54 unique clones were identified from the two libraries. A subset of 20 clones was selected from V2S and V2 M for cloning into P201 (SEQ ID Nos. 111-130).

Binding result, binds:
B1
B2
B3
B4
B5
B6
B7
B8
B9
B10
B11
B12
B13
B14
B15
B16
B17
B18

molecular target: T1, Nectin4-HIS protein (AcroBiosystems …); assay: flow cytometry, Nectin4-HIS at 2 ug/ml on CAR-transduced Nurkat cells

Binding result, binds:
B19
B20
B21
B22
B23
